Measured values: patent US20190374629A1
pKd: −log10 of the molar value.

Experiments:
basigin (human) [1] = molecular target: basigin (human) (UniProt P35613); experiment: SPR, BIAcore T200, basigin amine-coupled on CM5 chip, RH5 as analyte 8-0.0625 µM, global 1:1 fit, 20 °C
basigin (human) [2] = molecular target: basigin (human) (UniProt P35613); experiment: SPR (BIAcore T200), basigin amine-coupled to a CM5 chip; analyte PfRH5ΔNL lyophilised and resuspended before measurement, two-fold dilutions from a top concentration of 8 µM, global 1:1 fit [lower left panel (lyophilised]
basigin (human) [3] = molecular target: basigin (human) (UniProt P35613); experiment: SPR (BIAcore T200), basigin amine-coupled to a CM5 chip; analyte PfRH5ΔNLHS1 lyophilised and resuspended before measurement, two-fold dilutions from a top concentration of 8 µM, global 1:1 fit [lower right panel (lyophilised]

**Q.** How did the pKd (basigin (human) [1]) turn out when “PfRH5ΔNL (from UniProt Q8IFM5 140-526) (ligand)” was run?
**A.** Its pKd is 6.54.

**Q.** And the pKd (basigin (human) [2])?
**A.** Its pKd is 6.51.

**Q.** With “PfRH5ΔNLHS1 (from UniProt Q8IFM5 140-526) (ligand)” as the substance, how does the pKd (basigin (human) [1]) read?
**A.** Its pKd is 6.39.

**Q.** And the pKd (basigin (human) [3])?
**A.** The pKd was 6.52.
